# Tests used:
# BiP-Sepharose [1] = biological target: T1, BiP-Sepharose (Homo sapiens, UniProt P11021); test: BiP-Sepharose extraction of proteins from patient plasma, serum, synovial fluid and mass-spectrometric identification; assay type: binding; conditions: for Specific binding to BiP-Sepharose from control serum: compared to RA patient III
# T1 construct: The human BiP gene except the signal peptide encoding region was obtained from Geneart (Germany); linker […]; made in house; host or cells: HEK 293E cells, transient transfection, PABC674 vector; secreted into the medium
# Protocol: BiP was coated on CNBr-Sepharose (GE-Healthcare, Amersham Biosciences). Immobilization of BiP was performed essentially as described elsewhere in this application for NHS-Sepharose. CNBr-matrix was dissolved at 200 mg/ml in 1 mM HCl and treated the same as the NHS-matrix, except for an additional 5 minutes activation step in 1 mM HCl on a roller device before washing in this buffer. BiP was diluted in immobilization buffer (50 mM NaCl and 40 mM NaHCO3) to a concentration of 820 μg/ml. A total volume of 2 ml BiP solution (1640 μg BiP) was incubated with 360 mg beads. Negative control matrix was exposed to immobilization buffer, only. After overnight immobilization matrix was blocked with Tris and washed.
# (§1) Six samples were incubated with the BiP-Sepharose, IgIV-Sepharose and the control-Sepharose: Normal pooled plasma, plasma of a patient I or of a patient II, with AL amyloidosis, serum of a patient III with RA (Rheumatoid Factor (RF) titer 682), control serum and synovial fluid of a patient IV with RA (RF titer 23). All samples were diluted 20× in HBS and applied to 200 μl beads in two volumes of 500 μl. One volume was incubated for 4 h at RT and supernatant was discarded after centrifugation (2 minutes at 1400 rpm). Subsequently, the second volume was applied to the same matrix and incubated overnight on a roller device at 4° C. […] To collect the eluates, the matrices were centrifuged and the two eluates were pooled for each sample.
# (§2) Protein digests were desalted as described (Rappsilber et al., 2003), vacuum dried and dissolved in 2.5% formic acid.
# (§3) For analysis of peptide mixtures, an Agilent 1100 HPLC system (Agilent Technologies) connected to a Thermo Finnigan LTQ-MS (Thermo Electron, Bremen, Germany) was used. Protein digests were injected on a trap column (Reprosil C18 RP (Dr Maisch, Germany), 20 mm×100 μm I.D.) at 5 μl/minute. Subsequently, the peptides were transferred with a split-reduced flow rate of 100 nL/minute solvent A (0.1 M acetic acid) on the analytical column (Reprosil C18 RP, 20 cm×50 μm I.D.). […] The column effluent was directly introduced into the ESI source of the mass spectrometer via a butt-connected nano-ESI emitter (New Objectives, Woburn, Mass.). The mass spectrometer was operated in the positive ion mode and parent ions were selected for fragmentation in data-dependent mode.
# (§4) After mass spectrometric measurements, peak lists were generated using BioWorks software (Thermo Electron, Bremen, Germany). Protein identification was performed using Mascot software (www.matrixscience.com) by searching the IPIhuman database (version 3.24, downloaded from ftp://ftp.ebi.ac.uk/pub/databases/IPI/current) using the following settings: fully tryptic peptides, peptide tolerance 0.8 Da, MS/MS tolerance 0.9 Da, 1 missed cleavage allowed, carbamidomethyl (Cys) and oxidation (Met) as fixed and variable modification, respectively. The Scaffold software package (www.proteomesoftware.com) was used to parse the data and to filter peptides at a confidence level of 95%, allowing only protein identification with at least 2 peptides identified.
# BiP-Sepharose [2] = biological target: T1, BiP-Sepharose; test: Experiment 2: BiP-Sepharose extraction from six synovial fluid samples of RA patients and mass spectrometry; assay type: binding; conditions: BiP-Sepharose eluate, synovial fluid of RA patient
# Protocol: as §1, §2, §3, §4
# Those samples are listed below: • 1. […] One difference when compared to the protocol described above is that now with the twelve samples, elution buffer comprised 1 M NaCl. Again, a misfolded protein or a protein binding to misfolded protein is identified uniquely in the synovial fluid when no or a relatively very low number of fragments are detected in eluates of control-Sepharose.
# [3] = Sample B3: eluate of BiP-Sepharose contacted with AL amyloidosis patient II plasma
# [4] = Sample B2: eluate of BiP-Sepharose contacted with AL amyloidosis patient I plasma
# [5] = Sample B6: eluate of BiP-Sepharose contacted with RA patient IV synovial fluid
# [6] = Sample B4: eluate of BiP-Sepharose contacted with RA patient III serum
# [7] = compared to AL amyloidosis patient I
# [8] = compared to AL amyloidosis patient II
# T1 sequence (P11021 19-654): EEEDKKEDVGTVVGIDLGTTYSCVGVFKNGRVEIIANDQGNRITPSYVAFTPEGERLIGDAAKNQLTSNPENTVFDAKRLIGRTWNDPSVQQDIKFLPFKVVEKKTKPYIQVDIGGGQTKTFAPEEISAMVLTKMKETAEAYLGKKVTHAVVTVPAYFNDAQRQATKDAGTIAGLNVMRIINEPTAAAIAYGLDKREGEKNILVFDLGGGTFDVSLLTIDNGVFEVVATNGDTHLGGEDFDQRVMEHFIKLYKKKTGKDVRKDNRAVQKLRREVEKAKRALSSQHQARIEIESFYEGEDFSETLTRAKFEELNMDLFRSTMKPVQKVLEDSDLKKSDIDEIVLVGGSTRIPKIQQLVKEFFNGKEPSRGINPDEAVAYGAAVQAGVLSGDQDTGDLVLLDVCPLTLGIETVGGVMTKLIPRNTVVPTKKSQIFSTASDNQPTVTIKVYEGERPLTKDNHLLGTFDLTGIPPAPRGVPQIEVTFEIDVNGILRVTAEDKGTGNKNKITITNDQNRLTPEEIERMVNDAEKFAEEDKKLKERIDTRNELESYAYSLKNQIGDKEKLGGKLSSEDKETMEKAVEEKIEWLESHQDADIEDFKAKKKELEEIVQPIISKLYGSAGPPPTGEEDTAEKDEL
substance,measurement,setting,value
25 kDa protein/Immunoglobulin lambda locus [IPI00747752],# of peptides in sample A#,BiP-Sepharose [1]; [3],8
25 kDa protein/immunoglobulin lambda chain/rheumatoid factor G9 light chain (lambda V3)/IGLC1 protein [IPI00154742],# of peptides in sample A#,BiP-Sepharose [1]; [4],1
same,# of peptides in sample A#,BiP-Sepharose [1]; [3],1
26 kDa protein/Immunoglobulin kappa variable 1-5 [IPI00430820],# of peptides in sample A#,BiP-Sepharose [1]; [5],6
26 kDa protein/immunoglobulin kappa variable 1-5 [IPI00738024],# of peptides in sample A#,BiP-Sepharose [1]; [4],1
same,# of peptides in sample A#,BiP-Sepharose [1]; [3],1
"187 kDa protein, complement component 3",# of unique peptides,BiP-Sepharose [2]; Sample 1B,2
same,# of unique peptides,BiP-Sepharose [2]; Sample 5B,1
187 kDa protein/Complement component 3 [IPI00164623],# of peptides in sample A#,BiP-Sepharose [1]; [6],9
(sero)transferrin [IPI00022463],Specific binding to BiP-Sepharose from normal pooled plasma,BiP-Sepharose [1]; [7],specifically bound
same,Specific binding to BiP-Sepharose from control serum,BiP-Sepharose [1],specifically bound
"Alpha-1-antitrypsin precursor/Serpin peptidase inhibitor, clade A (alpha-1 antiproteinase, antitrypsin), member 1 [IPI00553177]",# of peptides in sample A#,BiP-Sepharose [1]; [6],1
Alpha-2-macroglobulin [IPI00478003],Specific binding to BiP-Sepharose from normal pooled plasma,BiP-Sepharose [1]; [7],specifically bound
same,Specific binding to BiP-Sepharose from normal pooled plasma,BiP-Sepharose [1]; [8],specifically bound
Apolipoprotein A-I precursor,# of unique peptides,BiP-Sepharose [2]; Sample 1B,3
same,# of unique peptides,BiP-Sepharose [2]; Sample 3B,8
Apolipoprotein A-II precursor,# of unique peptides,BiP-Sepharose [2]; Sample 1B,1
Apolipoprotein E precursor/Apolipoprotein E/Apolipoprotein E3 (Fragment) [IPI00021842],# of peptides in sample A#,BiP-Sepharose [1]; [4],6
"Complement component 4 binding protein, alpha, C4b-binding protein alpha chain precursor (C4bp) (Proline-rich protein/PRP) [IPI00021727]",# of peptides in sample A#,BiP-Sepharose [1]; [6],7
same,Specific binding to BiP-Sepharose from normal pooled plasma,BiP-Sepharose [1]; [8],specifically bound
Dynein heavy chain domain 3/KIAA1503 protein (Fragment) [IPI00783464],# of peptides in sample A#,BiP-Sepharose [1]; [3],2
Fc fragment of IgG binding protein (IgGFc-binding protein precursor/FcgammaBP/Fcgamma-binding protein antigen) [IPI00242956],# of peptides in sample A#,BiP-Sepharose [1]; [4],4
Full-length cDNA clone CS0DL004YM19 of B cells (Ramos cell line) of Homo sapiens (Fragment)/Unnamed protein product [IPI00328493],# of peptides in sample A#,BiP-Sepharose [1]; [6],4
GCN1 general control of amino-acid synthesis 1-like 1 (yeast)/GCN1-like protein 1 (HsGCN1) [IPI00001159],# of peptides in sample A#,BiP-Sepharose [1]; [6],2
Hypothetical protein DKFZp686N02209/immunoglobulin heavy constant gamma 1 (G1m marker) [IPI00384938],# of peptides in sample A#,BiP-Sepharose [1]; [3],1
Hypothetical protein LOC651928/Immunoglobulin kappa variable 1-5/IGKV2-24 protein [IPI00440577],# of peptides in sample A#,BiP-Sepharose [1]; [3],1
same,# of peptides in sample A#,BiP-Sepharose [1]; [6],1
Hypothetical protein [IPI00784983],# of peptides in sample A#,BiP-Sepharose [1]; [3],2
same,# of peptides in sample A#,BiP-Sepharose [1]; [5],1
Hypothetical protein [IPI00807428],# of peptides in sample A#,BiP-Sepharose [1]; [4],1
"Hypothetical protein/Heat shock 70 kDa protein 5 (glucose-regulated protein, 78 kDa = GRP78 = BiP = HSPA5) [IPI00003362]",# of peptides in sample A#,BiP-Sepharose [1]; [5],31
Hypothetical protein/Ig kappa chain V-II region RPMI 6410 precursor [IPI00550731],# of peptides in sample A#,BiP-Sepharose [1]; [3],1
"Hypothetical protein/immunoglobulin lambda locus/immunoglobulin lambda chain C regions (1/2/3)/immunoglobulin lambda variable V2-14/Ig lambda C3 protein (C2 segment protein, C3 segment protein)/Hypothetical protein DKFZp667J0B10 (Fragment) [IPI00760678]",# of peptides in sample A#,BiP-Sepharose [1]; [4],1
Hypothetical protein/immunoglobulin lambda variable 4-3 [IPI00382938],# of peptides in sample A#,BiP-Sepharose [1]; [4],1
same,# of peptides in sample A#,BiP-Sepharose [1]; [3],2
IGLC1 protein (immunoglobulin lambda C1)/immunoglobulin lambda chain/immunoglobulin C1 segment protein (fragment) [IPI00719373],# of peptides in sample A#,BiP-Sepharose [1]; [3],1
same,# of peptides in sample A#,BiP-Sepharose [1]; [6],2
same,# of peptides in sample A#,BiP-Sepharose [1]; [5],1
IGLC2 protein (immunoglobulin lambda C2)/Immunoglobulin lambda [IPI00555945],# of peptides in sample A#,BiP-Sepharose [1]; [4],1
Ig heavy chain V-III region CAM [IPI00382482],# of peptides in sample A#,BiP-Sepharose [1]; [5],2
Ig heavy chain V-III region TUR/Ig heavy chain V-III region TIL [IPI00382478],# of peptides in sample A#,BiP-Sepharose [1]; [6],1
Ig kappa chain V-I region WEA/Similar to Ig kappa chain V-I region HK102 precursor/Ig kappa chain V-I region AU [IPI00003111],# of peptides in sample A#,BiP-Sepharose [1]; [6],2
"Immunoglobulin J chain, Immunoglobulin J polypeptide, linker protein for immunoglobulin alpha and mu polypeptides [IPI00178926]",# of peptides in sample A#,BiP-Sepharose [1]; [6],5
Immunoglobulin lambda variable 3-25/V2-17 protein (Fragment) [IPI00550162],# of peptides in sample A#,BiP-Sepharose [1]; [4],8
same,# of peptides in sample A#,BiP-Sepharose [1]; [6],10
"Isoform 1 of Plectin-1/Plectin 1 (intermediate filament binding protein 500 kDa, Hemidesmosomal protein 1/HD1) [IPI00014898]",# of peptides in sample A#,BiP-Sepharose [1]; [3],1
same,# of peptides in sample A#,BiP-Sepharose [1]; [6],2
Isoform Long of Antigen KI-67/Antigen KI-67 [IPI00004233],# of peptides in sample A#,BiP-Sepharose [1]; [4],1
Myosin-reactive immunoglobulin light chain variable region/Ig kappa chain V-III region VH precursor (Fragment) [IPI00024138],# of peptides in sample A#,BiP-Sepharose [1]; [6],3
Phosphatase and actin regulator 4 isoform 1/Hypothetical protein DKFZp686L07205 [IPI00217851],# of peptides in sample A#,BiP-Sepharose [1]; [6],2
Single-chain Fv (Fragment) [IPI00470652],# of peptides in sample A#,BiP-Sepharose [1]; [3],2
Vitronectin precursor (Serum-spreading factor/S-protein/V75 [Contains: Vitronectin V65 subunit; Vitronectin V10 subunit; Somatomedin B])/Vitronectin [IPI00298971],# of peptides in sample A#,BiP-Sepharose [1]; [6],4
clusterin isoform 1 [IPI00291262],Specific binding to BiP-Sepharose from normal pooled plasma,BiP-Sepharose [1]; [8],specifically bound
same,Specific binding to BiP-Sepharose from control serum,BiP-Sepharose [1],specifically bound
complement factor H isoform I [IPI00029739],Specific binding to BiP-Sepharose from normal pooled plasma,BiP-Sepharose [1]; [8],specifically bound
haptoglobin [IPI00431645],Specific binding to BiP-Sepharose from normal pooled plasma,BiP-Sepharose [1]; [7],specifically bound
same,Specific binding to BiP-Sepharose from normal pooled plasma,BiP-Sepharose [1]; [8],specifically bound
same,Specific binding to BiP-Sepharose from control serum,BiP-Sepharose [1],specifically bound

# Source: US20100015126A1, “Methods of Binding of Cross-Beta Structures By Chaperones” (priority 2006, published 2010)
